Test results: publication PMC3594298

Biological target: 6Xhis-tagged AldE (class 3 aldehyde dehydrogenase encoded by synpcc7942_0489) from S. elongatus PCC7942 (S. elongatus PCC7942)
Assay: SEC; HiLoad 16/60 SuperDex200 gel filtration column in 150 mM NaCl/50 mM Tris, 7.5/1 mM EDTA; elution compared with MW standards

stoichiometry N: 2
Substance: 6Xhis-tagged AldE (class 3 aldehyde dehydrogenase encoded by synpcc7942_0489) from S. elongatus PCC7942 (enzyme)
